Test results as given in the supplement of paper PMC10567573.

B1: PTPN9 (parent)
chain: TQHLPRECLPENLGGYVKIDLATW
B2: CFHR2 (parent)
chain: FVENGHSESSGQTHLEGDTVQIIC

Variants of: B1
Experiment: protein stability index of a GFP-peptide fusion (GPS, HEK-293T) (PSI 1-6); higher = more stable
Conditions: c terminus: a fixed tail appended
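Note: lentivirally expressed fusions sorted by FACS into six bins by GFP to DsRed ratio, PSI derived from sequencing read proportions per bin multiplied by bin number.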

Protein stability index of substitutions, site by site:
T1: A 2.06

Variants of: B2
Experiment: as above
Conditions: c terminus: a fixed tail appended

Protein stability index: each site, then its substitutions
I22: R 3.53 | D 4.25 | S 4.26 | H 3.58 | L 2.34 | K 3.74 | F 3.03 | N 3.49 | G 3.85 | M 2.63 | Y 3.1 | A 3.56 | W 1.67 | V 3.02 | E 4.08 | T 3.87 | Q 3.74 | P 3.99 | C 3.17
Q21: V 1.85 | Y 2.58 | C 2.18 | R 2.9 | L 1.17 | S 2.91 | A 3.11 | N 3.29 | K 2.83 | M 1.92 | T 2.79 | P 3.04 | D 3.69 | E 3.15 | F 1.91 | I 1.82 | G 3.01 | H 2.24
D18: L 2.62 | A 2.13 | T 2.31 | F 2.33 | S 2.58 | P 2.23 | I 2.02 | Q 2.47 | V 2.34 | R 2.07 | M 1.83 | W 1.62 | C 1.65 | E 2.76 | G 2.3 | K 2.52 | N 2.25 | H 2.28 | Y 2.36
T19: R 2.37 | F 2.66 | S 3.21 | P 3.13 | I 2.62 | E 3.09 | H 3.1 | N 3.71 | W 1.53 | C 2.84 | Y 2.24 | V 3.3 | Q 3.19 | D 3.68 | L 2.14 | M 2.33 | G 3.25 | K 2.82
V20: H 3.41 | G 4 | N 3.66 | C 2.69 | F 2.02 | E 4.03 | P 3.26 | L 2.45 | M 2.59 | I 2.19 | K 3.06 | Y 2.71 | T 3.74 | W 1.57 | D 3.81 | Q 4.09 | S 2.74 | R 3.3 | A 3.64
I23: V 3.22 | D 4.42 | R 2.9 | C 2.73 | W 2.35 | E 4.13 | L 3.71 | H 3.47 | P 3.24 | M 2.83 | A 3.95 | S 3.21 | Q 3.35 | N 3.77 | Y 2.11 | K 3.35 | F 2.1 | T 3.88 | G 3.52
G17: T 2.91 | I 2.05 | P 2.81 | F 1.8 | R 2.52 | D 3.46 | Q 2.97 | V 2.11 | H 2.99 | Y 1.73 | E 4.47 | L 2.08 | K 2.54 | A 2.3 | W 1.79 | N 2.9 | M 2.29 | C 2.28 | S 2.77
E16: Q 2.33 | L 2.59 | I 2.25 | K 2.19 | P 2.42 | T 2.62 | D 3.12 | N 2.15 | S 2.71 | A 2.13 | R 2.63 | V 1.76 | H 1.86 | C 1.82 | G 2.01 | M 2.14
C24: T 3.61 | I 2.49 | N 3.42 | R 3.57 | P 3.87 | V 1.95 | H 3.23 | Q 4.31 | K 3.29 | Y 2.08 | W 3.05 | G 3.8 | F 1.88 | M 2.28 | L 2.38 | S 3.91 | A 3.96 | D 4.46 | E 3.88
